Reference: patent US20200376136A1
Where a chain is given by its changes, count along the chain named.

B1: BSSTEAP2/CD3-004 (bispecific antibody, IgG4, V domains shown)
VH 1: QVQLVESGGGVVQPGRSLRLSCVASGFTISSYGMNWVRQAPGKGLEWVAVISYDGGNKYSVDSVKGRFTISRDNSKNTLYLQMNSLRAEDSAVYYCARGRYFDLWGRGTLVTVSS
VH 2: EVQLVESGGGLVQPGRSLRLSCAASGFTFADYTMHWVRQGPGTGLEWVSDIGWSGGSLGYADSVKGRFTISRDNAKNSLYLEMNNLRPEDTALYYCVKDKSGYGKFQYGLDVWGQGTTVTVSS
VL: DIQMTQSPSTLSASVGDRVTITCRASQSISSWLAWYQQKPGRAPNLLISKASSLKSGVPSRFSGSGSGTEFTLTVSSLQPDDFATYYCQQYYSYSYTFGQGTKLEIK
B2: BSSTEAP2/CD3-001 (bispecific antibody, IgG4, V domains shown)
VH 1: QVQLQQSGPGLVKPSQTLSLTCAISGDSVSSNRAAWNWIRQSPSRGLQWLGRTYYRSKWYNDYAVSLRSRITINPVTSKNQVALHMNSVTPEDTAVYYCARAGIVVVPGPETFYYYDHGLDVWGQGTTVTVSS
VH 2: EVQLVESGGGLVQPGRSLRLSCAASGFTFDDYSMHWVRQAPGKGLEWVSGISWNSGSKGYADSVKGRFTISRDNAKNSLYLQMNSLRAEDTALYYCAKYGSGYGKFYHYGLDVWGQGTTVTVSS
VL: DIQMTQSPSSLSASVGDRVTITCRASQSIRSYLNWYQQKPGKAPELLIHAASSLQSGVPSRFSGSGSGTDFTLTISSLQPEDFASYYCQQSYSAPPITFGQGTRLEIK
B3: BSSTEAP2/CD3-006 (bispecific antibody, V domains shown)
VH 1: B2 VH 1
VH 2: B2 VH 2 with A23V, G59D
VL: B2 VL
B4: CD3-VH-P (antibody, V domains shown)
VH: B2 VH 2 with A23V, G59D
VL: DIQMTQSPSSLSASVGDSVTITCRASQSINNYLNWYQQKPGKAPKLLIYTASSLLSGVPSRFSGSGSGTDFTLTISGLHPEDFATYFCQQSFSTPPITFGQGTRLDIK
B5: BSSTEAP2/CD3-007 (bispecific antibody, V domains shown)
VH 1: B2 VH 1
VH 2: EVQLVESGGGLVQPGRSLRLSCAASGFTFADYTMHWVRQAPGKGLEWVSDISWNSGSIAYADSVKGRFTISRDNAKNSLYLQMNSLRTEDTAFYYCAKDSRGYGHYKYLGLDVWGQGTTVTVSS
VL: B2 VL

Tests used:
[1] = target: cynomolgus CD3 (cynomolgus monkey) (UniProt Q95LI5); test: FACS titration on purified cynomolgus T cells
[2] = target: cynomolgus CD3 (cynomolgus monkey) (UniProt Q95LI5); test: cell-based or functional assay
[3] = target: cynomolgus CD3 (cynomolgus monkey) (UniProt Q95LI5); test: FACS titration of cynomolgus T cells

Row | Binder | EC50 [1] | Cyno PBMC Proliferation [M] (donor) [2] | EC50 [3]
1 | B1 | 1.99 nM |  | 
2 | B2 | 7.27 nM | 4.59e-12 M | 
3 | B3 | 7.99 nM | 1.53e-11 M | 
4 | B4 |  |  | 1 to 40 nM
5 | B5 | 17.3 nM |  | 
